Test results from patent US20240254233A1 (IMMUNEONCIA THERAPEUTICS, published 2024).

B1: IMC-001 (antibody, V domains shown)
VH: QMQLVQSGAEVKKPGSSVKVSCKASGGTFSSYAYSWVRQAPGQGLEWMGGIIPSFGTANYAQKFQGRVTITADESTSTAYMELSSLRSEDTAVYYCARGPIVATITPLDYWGQGTLVTVSS
VL: SYVLTQPPSVSVAPGKTATIACGGENIGRKTVHWYQQKPGQAPVLVIYYDSDRPSGIPERFSGSNSGNTATLTISRVEAGDEADYYCLVWDSSSDHRIFGGGTKLTVL
B2: IMC-002 (antibody, V domains shown)
VH: QVQLVQSGAEVKKPGASVKVSCKASGYTFTSYYMHWVRQAPGQGLEWMGIINPSGGSTSYAQKFQGRVTMTRDTSTSTVYMELSSLRSEDTAVYYCARSTLWVSEFDYWGQGTLVTVSS
VL: QSALTQPASVSGSPGQSISISCTGTSSDVGGHNYVSWYQQHPGKAPKLMIYDVRNRPSGVSNRFSGSKSGSTASLTISGLQTEDEADYYCNSYTGSRTYVFGSGTKLTVLG
B3: IMC-201 (bispecific antibody, human IgG1, lambda)
heavy: not shown
light: QSALTQPASVSGSPGQSISISCTGTSSDVGGHNYVSWYQQHPGKAPKLMIYDVRNRPSGVSNRFSGSKSGSTASLTISGLQTEDEADYYCNSYTGSRTYVFGSGTKLTVLGQPKAAPSVTLFPPSSEELQANKATLVCLISDFYPGAVTVAWKADSSPVKAGVETTTPSKQSNNKYAASSYLSLTPEQWKSHRSYSCQVTHEGSTVEKTVAPTECS
notes: also called Ab 1159.1

Experiments:
[1] = target: T1, recombinant human PD-L1 (human, UniProt Q9NZQ7 19-238, limits assumed); experiment: ELISA, recombinant human PD-L1 coated at 75 ng/well, anti-human IgG Fcγ-HRP detection
T1 construct: also called single ligand (PD-L1)
T1 sequence (Q9NZQ7 19-238 limits assumed): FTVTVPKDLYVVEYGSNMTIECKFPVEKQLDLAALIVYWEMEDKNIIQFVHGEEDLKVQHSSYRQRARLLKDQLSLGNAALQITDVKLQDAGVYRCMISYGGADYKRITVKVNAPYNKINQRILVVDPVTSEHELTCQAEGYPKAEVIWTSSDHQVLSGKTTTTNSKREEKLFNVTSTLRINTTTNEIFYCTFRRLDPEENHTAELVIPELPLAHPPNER

[2] = target: T2, recombinant human CD47 (human, UniProt Q08722 19-139, limits assumed); experiment: ELISA, recombinant human CD47 coated at 50 ng/well, anti-human IgG Fcγ-HRP detection
T2 construct: also called single ligand (CD47)
T2 sequence (Q08722 19-139 limits assumed): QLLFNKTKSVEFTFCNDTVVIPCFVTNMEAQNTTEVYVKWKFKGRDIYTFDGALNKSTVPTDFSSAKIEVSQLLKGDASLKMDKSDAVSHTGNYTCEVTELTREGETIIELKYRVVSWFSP

[3] = target: T3, recombinant human CD47-fc (human, UniProt Q08722 19-139, limits assumed); experiment: dual-ligand (bridging) ELISA: CD47-fc coated, antibody titrated, then PD-L1-his at 50 ng/well, anti-his-HRP detection
T3 construct: Coated at 50 ng/well in the dual-ligand ELISA
T3 sequence (Q08722 19-139 limits assumed): as above

Binder	EC50 [1]	EC50 [2]	EC50 [3]
B1	0.989 ng/mL		
B2		2.77 ng/mL	
B3	7.24 ng/mL	4.09 ng/mL	17.4 ng/mL
